Results published in publication doi:10.1101/154351 (bioRxiv, 2017).

Target: TRC35 (residues 23 to 305) (human, UniProt Q7L5D6 23-305)
Assay: crystal structure

Sequence of TRC35 (residues 23 to 305) (Q7L5D6 23-305): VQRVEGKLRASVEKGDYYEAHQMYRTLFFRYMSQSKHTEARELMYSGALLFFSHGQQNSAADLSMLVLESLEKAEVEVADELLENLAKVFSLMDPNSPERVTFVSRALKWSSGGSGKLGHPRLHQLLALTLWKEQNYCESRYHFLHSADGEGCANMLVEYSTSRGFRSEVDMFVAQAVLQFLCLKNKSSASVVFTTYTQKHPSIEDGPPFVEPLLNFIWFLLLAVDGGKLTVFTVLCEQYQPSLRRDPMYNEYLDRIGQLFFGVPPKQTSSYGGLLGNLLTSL

B1: Bag6 minimal TRC35-binding domain containing the NLS (residues 1000-1054) (domain or fragment)
chain: ETEPWAAAVPPEWVPIIQQDIQSQRKVKPQPPLSDAYLSGMPAKRRKTMQGEGPQ
  binding result: binds
